Data: US20220265819A1

Molecular target: full length pHrodo-labelled monomeric (P301S) 2N4R tau (human) (UniProt P10636)
Assay: cell-based or functional assay

full length pHrodo-labelled monomeric (P301S) 2N4R tau (human), sequence (P10636 other isoform, or with tags, fused parts or gaps P301S P301S): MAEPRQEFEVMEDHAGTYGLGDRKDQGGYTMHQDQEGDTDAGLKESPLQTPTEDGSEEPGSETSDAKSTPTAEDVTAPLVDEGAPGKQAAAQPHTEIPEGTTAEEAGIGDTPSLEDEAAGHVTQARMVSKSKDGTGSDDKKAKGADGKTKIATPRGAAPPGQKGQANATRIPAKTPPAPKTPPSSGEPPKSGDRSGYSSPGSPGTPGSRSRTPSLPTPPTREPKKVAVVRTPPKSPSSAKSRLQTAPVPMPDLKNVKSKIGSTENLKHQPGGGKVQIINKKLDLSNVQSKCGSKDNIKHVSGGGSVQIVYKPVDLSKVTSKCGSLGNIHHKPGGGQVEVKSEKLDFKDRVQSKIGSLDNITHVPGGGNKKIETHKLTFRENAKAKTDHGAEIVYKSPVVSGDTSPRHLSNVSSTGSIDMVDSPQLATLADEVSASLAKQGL

| Substance | inhibition of uptake of monomeric tau into human iPSC-derived neurons |
| --- | --- |
| human IgG1 isotype control (antibody) | 16.9 % inhibition |
| isotype control rabbit IgG (Abcam) (antibody) | 14.5 % inhibition |
